Measured values as given in patent US20190062438A1 (CSL, published 2019).

Molecular target: T1, soluble Homo sapiens CD131 comprising a C-terminal 6xHis tag (human, UniProt P32927 17-438)
T1 construct: truncated after Ser438, C-terminal 6xHis; also called shCD131; shβc
T1 sequence: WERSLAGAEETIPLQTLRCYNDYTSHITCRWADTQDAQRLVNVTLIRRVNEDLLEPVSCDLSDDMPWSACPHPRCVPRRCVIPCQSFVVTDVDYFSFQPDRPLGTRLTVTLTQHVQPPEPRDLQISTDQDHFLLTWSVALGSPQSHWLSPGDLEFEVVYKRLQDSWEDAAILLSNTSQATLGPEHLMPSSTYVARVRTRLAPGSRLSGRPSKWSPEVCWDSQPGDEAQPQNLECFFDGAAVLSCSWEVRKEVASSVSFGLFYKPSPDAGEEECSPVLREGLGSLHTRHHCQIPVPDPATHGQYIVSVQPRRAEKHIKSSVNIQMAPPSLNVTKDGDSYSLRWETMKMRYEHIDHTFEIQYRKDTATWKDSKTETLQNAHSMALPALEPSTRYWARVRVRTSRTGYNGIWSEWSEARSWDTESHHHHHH
Assay: SPR, Fab over captured shCD131
Protocol: Binding kinetics were measured using SPR with a BIAcore™ A-100 instrument (GE Healthcare Life Sciences). An anti-C-terminal Hexa-His antibody (3H3) was immobilized on spots 1, 2, 4 and 5 of each flow cell of a CM-5 sensor chip (GE Healthcare Life Sciences) using amine-coupling chemistry (116). […] As shβc is a dimer, kinetics assays were performed with shβc captured on the sensor surface, and purified Fab injected as the analyte. Avidity effects were avoided by the use of Fab rather than whole IgG.
shCD131 was captured on spots 1 and 5 of each flow cell for 2 minutes at a concentration of 0.4 μg/ml. […] For some analysis purified Fab was injected over each flow cell for 3 minutes and dissociation was monitored for a further 10 minutes. Regeneration of the surface was performed after each cycle with a 40 second injection of 25 mM glycine, pH 2.0. The analysis was performed with Fabs at several concentrations between 100 and 0.31 nM, with each concentration analyzed twice and in random order. The analysis was performed at a flow rate of 30 μl/min in HBS-EP buffer (10 mM Hepes, 150 mM NaCl, 3 mM EDTA, 0.005% Tween 20, pH 7.4) at 37° C. Responses from spots 2 and 4 of each flow cell, (in which shβc was not captured, but otherwise treated identically), were subtracted from those of spots 1 and 5 respectively to produce reference subtracted data. Reference subtracted responses from a blank injection comprising buffer alone were subtracted from the resultant sensorgrams to produce double referenced data suitable for kinetic analysis. Double-referenced sensorgrams were fitted using non-linear regression to a model describing 1:1 kinetics, including a term for mass transport limitation. The Rₘₐₓ value was fitted locally to account for slight deviations in the level of sCD131 captured, with association rate (kₐ), dissociation rate (kd) and equilibrium dissociation constant (KD) fitted globally.

B1: 9A2-VR24.10 Fab (Fab, V domains shown)
VH: EVQLLESGGGLVQPGGSLRLSCAASGFTFPWYRVHWVRQAPGKGLEWVSSIHTGSQWTYYADSVKGRFTISRDNSKNTLYLQMNSLRAEDTAVYYCARFYDSFFDIWGQGTMVTVSS
VL: DIQMTQSPSSVSASVGDRVTITCRASQGISSWLAWYQQKPGKAPKLLIYAASSLQSGVPSRFSGSGSGTDFTLTISSLQPEDFATYYCQQANSFPITFGQGTRLEIKR
notes: recombinant Fab
Kd: 0.372 nM
koff: 0.00055 s⁻¹
kon: 1.48e+06 M⁻¹ s⁻¹

B2: 9A2-VR24.27 Fab (Fab, V domains shown)
VH: EVQLLESGGGLVQPGGSLRLSCAASGFTFPWYRVHWVRQAPGKGLEWVSSIRSSGGFPYYHQKVKGRFTISRDNSKNTLYLQMNSLRAEDTAVYYCARFYDSFFDIWGQGTMVTVSS
VL: DIQMTQSPSSVSASVGDRVTITCRASQGISSWLAWYQQKPGKAPKLLIYAASSLQSGVPSRFSGSGSGTDFTLTISSLQPEDFATYYCQQANSFPITFGQGTRLEIKR
notes: recombinant Fab
Kd: 0.17 nM
koff: 0.000527 s⁻¹
kon: 3.1e+06 M⁻¹ s⁻¹

B3: 9A2-VR24.30 Fab (Fab, V domains shown)
VH: EVQLLESGGGLVQPGGSLRLSCAASGFTFPWYRVHWVRQAPGKGLEWVSSIRSSGGFPYYNRRVKGRFTISRDNSKNTLYLQMNSLRAEDTAVYYCARFYDSFFDIWGQGTMVTVSS
VL: DIQMTQSPSSVSASVGDRVTITCRASQGISSWLAWYQQKPGKAPKLLIYAASSLQSGVPSRFSGSGSGTDFTLTISSLQPEDFATYYCQQANSFPITFGQGTRLEIKR
notes: recombinant Fab
Kd: 0.122 nM
koff: 0.000464 s⁻¹
kon: 3.8e+06 M⁻¹ s⁻¹

B4: 9A2-VR24.33 Fab (Fab, V domains shown)
VH: EVQLLESGGGLVQPGGSLRLSCAASGFTFPWYRVHWVRQAPGKGLEWVSSIRSSGGFPYYNHKVKGRFTISRDNSKNTLYLQMNSLRAEDTAVYYCARFYDSFFDIWGQGTMVTVSS
VL: DIQMTQSPSSVSASVGDRVTITCRASQGISSWLAWYQQKPGKAPKLLIYAASSLQSGVPSRFSGSGSGTDFTLTISSLQPEDFATYYCQQANSFPITFGQGTRLEIKR
notes: recombinant Fab
Kd: 0.149 nM
koff: 0.000472 s⁻¹
kon: 3.16e+06 M⁻¹ s⁻¹

B5: 9A2-VR24.44 Fab (Fab, V domains shown)
VH: EVQLLESGGGLVQPGGSLRLSCAASGFTFPWYRVHWVRQAPGKGLEWVSSIRSSGGFPYYHPSVKGRFTISRDNSKNTLYLQMNSLRAEDTAVYYCARFYDSFFDIWGQGTMVTVSS
VL: DIQMTQSPSSVSASVGDRVTITCRASQGISSWLAWYQQKPGKAPKLLIYAASSLQSGVPSRFSGSGSGTDFTLTISSLQPEDFATYYCQQANSFPITFGQGTRLEIKR
notes: recombinant Fab
Kd: 0.163 nM
koff: 0.000488 s⁻¹
kon: 3e+06 M⁻¹ s⁻¹

B6: 9A2-VR24.55 Fab (Fab, V domains shown)
VH: EVQLLESGGGLVQPGGSLRLSCAASGFTFPWYRVHWVRQAPGKGLEWVSSIRSSGGFTYYNPSVKNRFTISRDNSKNTLYLQMNSLRAEDTAVYYCARFYDSFFDIWGQGTMVTVSS
VL: DIQMTQSPSSVSASVGDRVTITCRASQGISSWLAWYQQKPGKAPKLLIYAASSLQSGVPSRFSGSGSGTDFTLTISSLQPEDFATYYCQQANSFPITFGQGTRLEIKR
notes: recombinant Fab
Kd: 0.369 nM
koff: 0.000942 s⁻¹
kon: 2.55e+06 M⁻¹ s⁻¹

B7: 9A2-VR24.56 Fab (Fab, V domains shown)
VH: EVQLLESGGGLVQPGGSLRLSCAASGFTFPWYRVHWVRQAPGKGLEWVSSIRSSGGFTYYNPAVRGRFTISRDNSKNTLYLQMNSLRAEDTAVYYCARFYDSFFDIWGQGTMVTVSS
VL: DIQMTQSPSSVSASVGDRVTITCRASQGISSWLAWYQQKPGKAPKLLIYAASSLQSGVPSRFSGSGSGTDFTLTISSLQPEDFATYYCQQANSFPITFGQGTRLEIKR
notes: recombinant Fab
Kd: 0.353 nM
koff: 0.000997 s⁻¹
kon: 2.82e+06 M⁻¹ s⁻¹

B8: 9A2-VR24.57 Fab (Fab, V domains shown)
VH: EVQLLESGGGLVQPGGSLRLSCAASGFTFPWYRVHWVRQAPGKGLEWVSSIRSSGGFTYYNPKVKHRFTISRDNSKNTLYLQMNSLRAEDTAVYYCARFYDSFFDIWGQGTMVTVSS
VL: DIQMTQSPSSVSASVGDRVTITCRASQGISSWLAWYQQKPGKAPKLLIYAASSLQSGVPSRFSGSGSGTDFTLTISSLQPEDFATYYCQQANSFPITFGQGTRLEIKR
notes: recombinant Fab
Kd: 0.211 nM
koff: 0.000841 s⁻¹
kon: 4e+06 M⁻¹ s⁻¹

B9: 9A2-VR24.81 Fab (Fab, V domains shown)
VH: EVQLLESGGGLVQPGGSLRLSCAASGFTFPWYRVHWVRQAPGKGLEWVSSIHTHRNYTYYADSVKGRFTISRDNSKNTLYLQMNSLRAEDTAVYYCARFYDSFFDIWGQGTMVTVSS
VL: DIQMTQSPSSVSASVGDRVTITCRASQGISSWLAWYQQKPGKAPKLLIYAASSLQSGVPSRFSGSGSGTDFTLTISSLQPEDFATYYCQQANSFPITFGQGTRLEIKR
notes: recombinant Fab
Kd: 0.173 nM
koff: 0.000492 s⁻¹
kon: 2.85e+06 M⁻¹ s⁻¹

B10: 9A2-VR24.84 Fab (Fab, V domains shown)
VH: EVQLLESGGGLVQPGGSLRLSCAASGFTFPWYRVHWVRQAPGKGLEWVSSIHTHRPWTYYADSVKGRFTISRDNSKNTLYLQMNSLRAEDTAVYYCARFYDSFFDIWGQGTMVTVSS
VL: DIQMTQSPSSVSASVGDRVTITCRASQGISSWLAWYQQKPGKAPKLLIYAASSLQSGVPSRFSGSGSGTDFTLTISSLQPEDFATYYCQQANSFPITFGQGTRLEIKR
notes: recombinant Fab
Kd: 0.106 nM
koff: 0.000418 s⁻¹
kon: 3.95e+06 M⁻¹ s⁻¹

B11: 9A2-VR24.91 Fab (Fab, V domains shown)
VH: EVQLLESGGGLVQPGGSLRLSCAASGFTFPWYRVHWVRQAPGKGLEWVSSIHTHRQVTYYADSVKGRFTISRDNSKNTLYLQMNSLRAEDTAVYYCARFYDSFFDIWGQGTMVTVSS
VL: DIQMTQSPSSVSASVGDRVTITCRASQGISSWLAWYQQKPGKAPKLLIYAASSLQSGVPSRFSGSGSGTDFTLTISSLQPEDFATYYCQQANSFPITFGQGTRLEIKR
notes: recombinant Fab
Kd: 0.161 nM
koff: 0.000448 s⁻¹
kon: 2.78e+06 M⁻¹ s⁻¹

B12: 9A2-VR24.97 Fab (Fab, V domains shown)
VH: EVQLLESGGGLVQPGGSLRLSCAASGFTFPWYRVHWVRQAPGKGLEWVSSIRSSGGFPYYSLSVKGRFTISRDNSKNTLYLQMNSLRAEDTAVYYCARFYDSFFDIWGQGTMVTVSS
VL: DIQMTQSPSSVSASVGDRVTITCRASQGISSWLAWYQQKPGKAPKLLIYAASSLQSGVPSRFSGSGSGTDFTLTISSLQPEDFATYYCQQANSFPITFGQGTRLEIKR
notes: recombinant Fab
Kd: 0.16 nM
koff: 0.000524 s⁻¹
kon: 3.2e+06 M⁻¹ s⁻¹

B13: 9A2-VR24.98 Fab (Fab, V domains shown)
VH: EVQLLESGGGLVQPGGSLRLSCAASGFTFPWYRVHWVRQAPGKGLEWVSSIRSSGGFPHYNSVVKGRFTISRDNSKNTLYLQMNSLRAEDTAVYYCARFYDSFFDIWGQGTMVTVSS
VL: DIQMTQSPSSVSASVGDRVTITCRASQGISSWLAWYQQKPGKAPKLLIYAASSLQSGVPSRFSGSGSGTDFTLTISSLQPEDFATYYCQQANSFPITFGQGTRLEIKR
notes: recombinant Fab
Kd: 0.174 nM
koff: 0.000559 s⁻¹
kon: 3.21e+06 M⁻¹ s⁻¹

B14: 9A2-VR24.102 Fab (Fab, V domains shown)
VH: EVQLLESGGGLVQPGGSLRLSCAASGFTFPWYRVHWVRQAPGKGLEWVSSIRSSGGFPFYNSSVKGRFTISRDNSKNTLYLQMNSLRAEDTAVYYCARFYDSFFDIWGQGTMVTVSS
VL: DIQMTQSPSSVSASVGDRVTITCRASQGISSWLAWYQQKPGKAPKLLIYAASSLQSGVPSRFSGSGSGTDFTLTISSLQPEDFATYYCQQANSFPITFGQGTRLEIKR
notes: recombinant Fab
Kd: 0.188 nM
koff: 0.000556 s⁻¹
kon: 2.95e+06 M⁻¹ s⁻¹
